Test results: patent publication US8242083B2, “Kinase substrates” (PerkinElmer Health Sciences, Inc., priority 2008, dated 2012)

What was measured:
Assay type in all cases: biochemical
[1] = target: FAK (Homo sapiens, UniProt Q05397); test: TR-FRET kinase assay, FAK; details: Kinase Concentration 3 nM; 50 nM ULight-labeled substrate, 200 micromolar ATP, 2 hours
Description: (§1) TR-FRET kinase assays are performed under standardized conditions: various individual kinases are incubated with 50 nM of kinase substrate BRB1 labeled with the TR-FRET acceptor dye ULight (PerkinElmer) and 200 micromolar ATP in 10 μL of kinase assay buffer (50 mM HEPES pH7.5, 10 mM MgCl2, 3 mM MnCl2, 1 mM EGTA, 2 mM DTT and 0.01% Tween-20) for 2 hours at room temperature. Reactions are stopped with EDTA, and anti-phospho-tyrosine antibodies (clone PT66) labeled with the TR-FRET europium chelate donor dye are added to a final concentration of 2 nM in a final volume of 20 μL. The TR-FRET signal emitted at 665 nm is read one hour after the addition of antibodies using a TR-FRET plate reader such as the Envision® Multilabel Plate reader (PerkinElmer). The emitted signal at 665 nm is proportional to the extent of peptide phosphorylation, Control reactions indicative of background are performed excluding ATP from the reaction.
(§2) Assay conditions are identical to those used described for FIG. 1.

[2] = target: T1, TXK (Homo sapiens, UniProt P42681); test: TR-FRET kinase assay, TXK; details: Kinase Concentration 3 nM; 50 nM ULight-labeled substrate, 200 micromolar ATP, 2 hours
T1 sequence (P42681 1-527): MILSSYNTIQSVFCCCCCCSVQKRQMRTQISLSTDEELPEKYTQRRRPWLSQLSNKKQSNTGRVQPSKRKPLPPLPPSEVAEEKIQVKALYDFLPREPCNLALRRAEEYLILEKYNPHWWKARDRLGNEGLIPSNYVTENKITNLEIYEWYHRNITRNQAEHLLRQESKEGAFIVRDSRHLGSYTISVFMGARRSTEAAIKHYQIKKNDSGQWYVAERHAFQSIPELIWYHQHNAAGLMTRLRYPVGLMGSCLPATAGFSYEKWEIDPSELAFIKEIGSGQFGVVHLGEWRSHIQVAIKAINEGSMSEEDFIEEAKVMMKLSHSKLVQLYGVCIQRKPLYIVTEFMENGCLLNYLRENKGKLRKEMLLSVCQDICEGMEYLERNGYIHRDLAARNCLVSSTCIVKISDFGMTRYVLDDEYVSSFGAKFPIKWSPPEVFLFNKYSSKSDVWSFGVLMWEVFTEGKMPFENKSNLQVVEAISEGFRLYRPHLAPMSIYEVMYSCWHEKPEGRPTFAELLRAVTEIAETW
Description: as §1, §2

[3] = tested on: 83 tyrosine kinases; test: Panel of 83 TR-FRET tyrosine kinase assays; details: 83 tyrosine kinases tested; conditions of Example 1
Description: as §1, §2
The BRB2 peptide is tested with 83 tyrosine kinases in assay conditions identical to those used for BRB1 in Example 1. Data obtained with BRB2 indicate that the peptide is phosphorylated by 65 kinases out of 83 (78%), with signal to noise ratio of >3.

[4] = target: BTK (Homo sapiens, UniProt Q06187); test: TR-FRET kinase assay, BTK; details: Kinase Concentration 0.25 nM; 50 nM ULight-labeled substrate, 200 micromolar ATP, 2 hours
Description: as §1, §2

[5] = target: T2, ITK (Homo sapiens, UniProt Q08881); test: TR-FRET kinase assay, ITK; details: Kinase Concentration 0.5 nM; 50 nM ULight-labeled substrate, 200 micromolar ATP, 2 hours
T2 sequence (Q08881 1-620): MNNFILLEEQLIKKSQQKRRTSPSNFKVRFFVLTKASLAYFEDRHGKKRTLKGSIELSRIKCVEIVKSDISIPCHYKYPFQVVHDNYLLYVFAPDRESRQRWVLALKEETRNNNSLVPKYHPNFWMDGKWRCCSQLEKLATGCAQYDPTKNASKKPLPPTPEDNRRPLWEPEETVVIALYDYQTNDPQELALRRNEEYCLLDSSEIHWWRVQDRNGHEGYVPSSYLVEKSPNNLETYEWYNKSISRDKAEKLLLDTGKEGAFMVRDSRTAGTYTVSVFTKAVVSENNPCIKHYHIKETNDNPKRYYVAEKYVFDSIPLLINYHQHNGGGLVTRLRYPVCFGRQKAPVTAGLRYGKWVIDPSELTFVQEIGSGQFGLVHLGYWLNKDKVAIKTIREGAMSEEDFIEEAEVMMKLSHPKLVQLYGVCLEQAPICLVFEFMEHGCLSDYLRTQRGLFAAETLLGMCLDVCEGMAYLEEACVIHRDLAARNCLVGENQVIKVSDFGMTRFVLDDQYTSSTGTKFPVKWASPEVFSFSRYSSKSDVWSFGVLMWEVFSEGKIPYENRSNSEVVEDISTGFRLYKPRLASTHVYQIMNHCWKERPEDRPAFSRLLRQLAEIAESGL
Description: as §1, §2

[6] = target: T3, ZAP70 (Homo sapiens, UniProt P43403); test: TR-FRET kinase assay, ZAP70; details: Kinase Concentration 4 nM; 50 nM ULight-labeled substrate, 200 micromolar ATP, 2 hours
T3 sequence (P43403 1-619): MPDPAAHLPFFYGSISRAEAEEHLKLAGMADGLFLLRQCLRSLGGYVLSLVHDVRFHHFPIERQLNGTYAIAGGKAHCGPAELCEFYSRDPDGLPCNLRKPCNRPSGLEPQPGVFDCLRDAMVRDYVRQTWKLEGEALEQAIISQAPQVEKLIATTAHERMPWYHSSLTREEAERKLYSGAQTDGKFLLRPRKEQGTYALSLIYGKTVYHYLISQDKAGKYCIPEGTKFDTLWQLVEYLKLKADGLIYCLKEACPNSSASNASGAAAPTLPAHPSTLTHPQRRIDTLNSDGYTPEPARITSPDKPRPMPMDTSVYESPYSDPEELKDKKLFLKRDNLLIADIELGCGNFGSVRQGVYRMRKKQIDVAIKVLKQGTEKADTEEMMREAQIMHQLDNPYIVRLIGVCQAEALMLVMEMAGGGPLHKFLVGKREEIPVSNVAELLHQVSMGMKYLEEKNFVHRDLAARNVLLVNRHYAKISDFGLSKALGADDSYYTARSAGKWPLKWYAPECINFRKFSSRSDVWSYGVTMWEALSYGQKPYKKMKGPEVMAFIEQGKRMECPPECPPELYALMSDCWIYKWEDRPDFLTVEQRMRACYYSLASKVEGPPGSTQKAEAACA
Description: as §1, §2

[7] = target: TRKC (NTRK3) (Homo sapiens, UniProt Q16288); test: TR-FRET kinase assay, TRKC (NTRK3); details: Kinase Concentration 0.5 nM; 50 nM ULight-labeled substrate, 200 micromolar ATP, 2 hours
Description: as §1, §2

[8] = target: TYK2 (Homo sapiens, UniProt P29597); test: TR-FRET kinase assay, TYK2; details: Kinase Concentration 4 nM; 50 nM ULight-labeled substrate, 200 micromolar ATP, 2 hours
Description: as §1, §2

[9] = target: JAK1 (Homo sapiens, UniProt P23458); test: TR-FRET kinase assay, JAK1; details: Kinase Concentration 7 nM; 50 nM ULight-labeled substrate, 200 micromolar ATP, 2 hours
Description: as §1, §2

FAK, sequence (Q05397 whole entry, species assumed): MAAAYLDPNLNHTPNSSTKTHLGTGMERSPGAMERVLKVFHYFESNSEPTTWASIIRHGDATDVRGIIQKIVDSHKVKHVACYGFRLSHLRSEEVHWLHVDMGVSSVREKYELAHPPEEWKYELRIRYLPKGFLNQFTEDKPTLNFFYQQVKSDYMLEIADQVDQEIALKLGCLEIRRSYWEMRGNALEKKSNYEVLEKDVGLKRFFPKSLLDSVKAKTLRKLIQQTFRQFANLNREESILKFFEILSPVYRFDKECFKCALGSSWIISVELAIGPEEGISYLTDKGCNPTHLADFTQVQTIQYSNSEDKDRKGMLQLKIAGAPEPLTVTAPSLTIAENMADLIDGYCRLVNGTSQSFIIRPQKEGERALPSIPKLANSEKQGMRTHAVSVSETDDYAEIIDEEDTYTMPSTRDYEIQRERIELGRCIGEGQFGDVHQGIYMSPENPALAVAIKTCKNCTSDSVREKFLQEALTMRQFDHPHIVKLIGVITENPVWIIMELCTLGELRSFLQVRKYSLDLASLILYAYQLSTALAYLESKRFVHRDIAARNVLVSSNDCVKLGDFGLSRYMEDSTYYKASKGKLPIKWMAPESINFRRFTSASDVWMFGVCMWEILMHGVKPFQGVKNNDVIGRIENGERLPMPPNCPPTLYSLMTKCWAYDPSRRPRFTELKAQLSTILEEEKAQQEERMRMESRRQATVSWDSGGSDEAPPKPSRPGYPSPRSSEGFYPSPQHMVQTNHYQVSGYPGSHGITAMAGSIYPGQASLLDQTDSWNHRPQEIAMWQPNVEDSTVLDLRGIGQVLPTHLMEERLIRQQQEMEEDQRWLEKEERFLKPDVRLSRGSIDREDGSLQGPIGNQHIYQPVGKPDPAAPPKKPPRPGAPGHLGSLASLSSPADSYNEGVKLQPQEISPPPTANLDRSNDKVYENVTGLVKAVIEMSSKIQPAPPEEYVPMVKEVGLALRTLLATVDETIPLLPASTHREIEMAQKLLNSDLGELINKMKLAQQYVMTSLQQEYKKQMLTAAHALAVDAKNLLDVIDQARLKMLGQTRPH
TYK2, sequence (P29597 whole entry, species assumed): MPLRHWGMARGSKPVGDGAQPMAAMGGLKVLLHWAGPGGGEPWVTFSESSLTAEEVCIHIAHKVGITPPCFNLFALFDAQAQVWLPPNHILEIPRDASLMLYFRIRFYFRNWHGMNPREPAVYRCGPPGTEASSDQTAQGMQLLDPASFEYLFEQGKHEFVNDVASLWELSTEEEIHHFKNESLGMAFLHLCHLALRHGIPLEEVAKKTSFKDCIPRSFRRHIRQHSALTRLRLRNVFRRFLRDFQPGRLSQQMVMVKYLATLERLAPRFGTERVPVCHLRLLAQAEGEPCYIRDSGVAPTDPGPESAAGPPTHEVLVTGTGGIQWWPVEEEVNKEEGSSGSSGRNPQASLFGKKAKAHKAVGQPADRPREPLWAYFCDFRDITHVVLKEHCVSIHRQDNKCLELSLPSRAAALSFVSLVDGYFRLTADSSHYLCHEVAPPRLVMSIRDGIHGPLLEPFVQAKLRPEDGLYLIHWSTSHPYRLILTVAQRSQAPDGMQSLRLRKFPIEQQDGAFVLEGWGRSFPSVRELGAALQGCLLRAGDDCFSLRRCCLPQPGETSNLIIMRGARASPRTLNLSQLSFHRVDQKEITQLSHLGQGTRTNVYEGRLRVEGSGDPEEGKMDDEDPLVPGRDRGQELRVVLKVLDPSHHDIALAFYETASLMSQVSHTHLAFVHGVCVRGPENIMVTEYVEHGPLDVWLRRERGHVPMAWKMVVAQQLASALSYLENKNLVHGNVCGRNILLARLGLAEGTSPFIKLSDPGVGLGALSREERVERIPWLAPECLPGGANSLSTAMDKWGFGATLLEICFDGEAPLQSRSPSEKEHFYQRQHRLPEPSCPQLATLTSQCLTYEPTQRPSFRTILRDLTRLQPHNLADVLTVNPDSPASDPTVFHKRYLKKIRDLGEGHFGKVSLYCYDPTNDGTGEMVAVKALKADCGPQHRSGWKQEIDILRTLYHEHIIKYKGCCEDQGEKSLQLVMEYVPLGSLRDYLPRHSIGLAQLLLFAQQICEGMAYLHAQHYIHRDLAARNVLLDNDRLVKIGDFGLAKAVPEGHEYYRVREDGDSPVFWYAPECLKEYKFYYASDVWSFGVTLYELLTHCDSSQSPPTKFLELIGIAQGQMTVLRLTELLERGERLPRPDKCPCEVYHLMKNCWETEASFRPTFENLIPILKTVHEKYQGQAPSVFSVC
BTK, sequence (Q06187 whole entry, species assumed): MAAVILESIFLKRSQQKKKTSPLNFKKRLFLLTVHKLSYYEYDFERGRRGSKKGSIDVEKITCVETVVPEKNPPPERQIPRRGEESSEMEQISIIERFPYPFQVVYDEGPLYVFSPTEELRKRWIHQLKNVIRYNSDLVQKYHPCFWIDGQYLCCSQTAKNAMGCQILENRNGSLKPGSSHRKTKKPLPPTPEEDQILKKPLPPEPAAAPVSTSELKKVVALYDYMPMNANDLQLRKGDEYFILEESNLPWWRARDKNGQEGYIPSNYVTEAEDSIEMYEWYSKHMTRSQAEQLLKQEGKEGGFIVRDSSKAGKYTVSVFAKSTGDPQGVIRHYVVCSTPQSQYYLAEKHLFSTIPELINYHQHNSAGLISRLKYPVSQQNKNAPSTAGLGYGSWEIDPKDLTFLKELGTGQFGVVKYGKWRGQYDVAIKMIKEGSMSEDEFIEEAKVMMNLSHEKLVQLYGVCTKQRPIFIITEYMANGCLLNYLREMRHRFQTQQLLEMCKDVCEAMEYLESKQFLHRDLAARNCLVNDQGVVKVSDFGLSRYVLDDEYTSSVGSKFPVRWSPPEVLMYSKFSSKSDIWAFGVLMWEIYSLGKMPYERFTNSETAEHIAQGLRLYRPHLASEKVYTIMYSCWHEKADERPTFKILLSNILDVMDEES
JAK1, sequence (P23458 whole entry, species assumed): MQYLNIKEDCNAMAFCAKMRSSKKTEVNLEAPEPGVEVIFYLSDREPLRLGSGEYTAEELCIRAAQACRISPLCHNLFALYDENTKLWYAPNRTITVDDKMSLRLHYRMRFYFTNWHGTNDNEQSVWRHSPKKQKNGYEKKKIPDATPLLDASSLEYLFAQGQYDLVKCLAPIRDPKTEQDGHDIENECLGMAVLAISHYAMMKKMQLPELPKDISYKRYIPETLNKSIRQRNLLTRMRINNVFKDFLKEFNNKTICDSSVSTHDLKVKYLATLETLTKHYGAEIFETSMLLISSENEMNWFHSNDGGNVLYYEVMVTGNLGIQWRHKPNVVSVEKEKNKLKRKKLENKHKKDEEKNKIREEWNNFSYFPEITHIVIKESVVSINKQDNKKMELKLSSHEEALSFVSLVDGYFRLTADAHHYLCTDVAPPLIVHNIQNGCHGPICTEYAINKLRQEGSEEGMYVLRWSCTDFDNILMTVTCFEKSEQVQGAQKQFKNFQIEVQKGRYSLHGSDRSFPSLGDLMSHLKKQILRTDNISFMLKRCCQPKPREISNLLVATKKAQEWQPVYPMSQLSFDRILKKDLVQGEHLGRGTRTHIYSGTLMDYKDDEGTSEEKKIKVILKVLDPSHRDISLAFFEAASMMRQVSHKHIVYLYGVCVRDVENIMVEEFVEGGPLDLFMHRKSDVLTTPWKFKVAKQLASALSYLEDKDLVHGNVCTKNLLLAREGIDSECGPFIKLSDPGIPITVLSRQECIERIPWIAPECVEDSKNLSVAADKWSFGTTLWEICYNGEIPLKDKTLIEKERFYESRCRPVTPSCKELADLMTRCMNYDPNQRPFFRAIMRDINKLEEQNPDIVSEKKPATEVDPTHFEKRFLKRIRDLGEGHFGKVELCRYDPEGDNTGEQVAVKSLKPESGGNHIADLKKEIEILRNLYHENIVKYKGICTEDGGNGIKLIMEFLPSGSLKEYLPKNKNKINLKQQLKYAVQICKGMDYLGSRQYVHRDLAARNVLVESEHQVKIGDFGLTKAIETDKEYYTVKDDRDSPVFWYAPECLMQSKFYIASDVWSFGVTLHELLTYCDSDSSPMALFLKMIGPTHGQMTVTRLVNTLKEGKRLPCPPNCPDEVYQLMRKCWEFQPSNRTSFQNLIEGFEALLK

C AYE AYE AYE K EYA EYA EYA K AYA EYE R (CAYEAYEAYEKEYAEYAEYAKAYAEYER; tyrosine kinase substrate peptide) [BRB1]
Signal to Noise ratio with BRB1 Peptide [1]: 1.7
Signal to Noise ratio with BRB1 Peptide [2]: 5.9
Number of kinases out of 83 that phosphorylated the peptide with signal to noise ratio of >3 [3]: 72
Percentage of 83 kinases that phosphorylated the peptide with signal to noise ratio of >3 [3]: 87%
Signal to Noise ratio with BRB1 Peptide [4]: 6.8
Signal to Noise ratio with BRB1 Peptide [5]: 8.4
Signal to Noise ratio with BRB1 Peptide [6]: 7.6
Signal to Noise ratio with BRB1 Peptide [7]: 6.4
Signal to Noise ratio with BRB1 Peptide [8]: 7.3
Signal to Noise ratio with BRB1 Peptide [9]: 13.7
